T1: AP180 (rat (endogenous in rat brain …, UniProt Q05140 1-915))
T1 construct: AP180 (clathrin coat assembly protein), endogenous in rat brain synaptosomes; source: endogenous, rat brain synaptosome lysate
T1 sequence (looked up): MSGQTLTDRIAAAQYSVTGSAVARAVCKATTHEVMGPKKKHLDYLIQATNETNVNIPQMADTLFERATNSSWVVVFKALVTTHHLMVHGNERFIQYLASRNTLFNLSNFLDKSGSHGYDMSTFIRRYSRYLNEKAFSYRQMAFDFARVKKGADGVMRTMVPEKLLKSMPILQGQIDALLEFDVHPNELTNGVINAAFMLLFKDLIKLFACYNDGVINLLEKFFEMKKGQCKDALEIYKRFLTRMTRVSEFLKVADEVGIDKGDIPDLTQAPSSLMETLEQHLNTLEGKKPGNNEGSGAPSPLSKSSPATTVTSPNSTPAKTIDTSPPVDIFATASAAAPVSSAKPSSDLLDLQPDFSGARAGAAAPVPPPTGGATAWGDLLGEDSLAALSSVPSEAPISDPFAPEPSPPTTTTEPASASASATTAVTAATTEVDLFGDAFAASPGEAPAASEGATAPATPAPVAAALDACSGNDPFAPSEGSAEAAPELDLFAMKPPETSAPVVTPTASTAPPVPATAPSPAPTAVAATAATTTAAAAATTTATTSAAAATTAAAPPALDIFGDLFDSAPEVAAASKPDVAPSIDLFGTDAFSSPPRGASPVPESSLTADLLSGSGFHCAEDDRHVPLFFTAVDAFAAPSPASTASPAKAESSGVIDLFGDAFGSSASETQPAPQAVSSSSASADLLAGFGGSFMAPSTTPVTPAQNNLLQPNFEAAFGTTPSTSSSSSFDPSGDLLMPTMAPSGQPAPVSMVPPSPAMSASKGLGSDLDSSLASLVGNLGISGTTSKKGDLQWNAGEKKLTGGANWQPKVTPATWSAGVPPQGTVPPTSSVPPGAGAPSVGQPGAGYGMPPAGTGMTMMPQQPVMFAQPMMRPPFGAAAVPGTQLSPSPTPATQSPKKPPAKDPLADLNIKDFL

B1: synaptotagmin 1 (natural protein, UniProt P21707 1-421, looked up)
chain: MVSASHPEALAAPVTTVATLVPHNATEPASPGEGKEDAFSKLKQKFMNELHKIPLPPWALIAIAIVAVLLVVTCCFCVCKKCLFKKKNKKKGKEKGGKNAINMKDVKDLGKTMKDQALKDDDAETGLTDGEEKEEPKEEEKLGKLQYSLDYDFQNNQLLVGIIQAAELPALDMGGTSDPYVKVFLLPDKKKKFETKVHRKTLNPVFNEQFTFKVPYSELGGKTLVMAVYDFDRFSKHDIIGEFKVPMNTVDFGHVTEEWRDLQSAEKEEQEKLGDICFSLRYVPTAGKLTVVILEAKNLKKMDVGGLSDPYVKIHLMQNGKRLKKKKTTIKKNTLNPYYNESFSFEVPFEQIQKVQVVVTVLDYDKIGKNDAIGKVFVGYNSTGAELRHWSDMLANPRRPIAQWHTLQVEEEVDAMLAVKK
notes: synaptotagmin 1, endogenous in synaptosomes from brains of 2-10 day old Sprague Dawley rats; also called STG; STG 1; source: endogenous, rat brain synaptosome lysate
B2: stonin2 (natural protein, UniProt D4AB66 1-895, looked up)
chain: MTTLDHVIATHQSEWVSFSEEPLFPTPLEGGTEEHFPGLSSSSDRSESSSGENHAVDEGSQDLSHSEQDDSSEKMGLISEAASPPGSPVQPTPDLASAISNWVQFEDDTPWSNTSAPHKETALTLTVPCWTCPSLDSLRRCPLASESSWTTHSEDTSSPSVAPSYTDLQLINAEEQASGRASGTDSTDNSSSLQEDEEVEMETISWWAGSPAMNGHPAVPQVTTARFPSWVTFEDNEVGCPSPTVPSPKKPNAPSAATAGPDVPFNSTGSFKRDRPKSTLMNLSKVQKLDISSLNRPPSVTEAPPWRATNPFLNESLQDIQPSPINPFSAFFEEQERRSQNSSISGTSGKSQRDSLIVIYQDAISFDDSGKSQSHPDAIEKLKQLQIDDPDPVGNAALPDDDPTASVEPDAPSPTSALSQPRDGWPMMLRIPEKKNIMSSRHWGPIYIKLTDSGYLQLYYEQGLEKPFREFKLEICHEVSEPRLQNYDENGRIHSLRIDRVTYKEKKKYQPKPAVAHAAEREQVIKLGTTNYDDFLSFIHAVQDRLMDLPVQSMDLSTVGLNYLEEEITVDIRDEFSGTVSKGDNQILQHHVLTRIHILSFLSGLAECRLGLNDILIKGNEIVSRQDIMPTTTTKWIKLHECRFHGCVDEDVFNSSRVILFNPLDACRFELMRFRTVFAEKTLPFTLRTAASINGAEVEVQSWLRMSPGFSSNRDPLTQVPCENVMVRYPVPSEWVKNFRRESVLGEKSLKAKVNRGASFGSAGASGSEPVMRVTLGTAKYEHAFNSIVWRINRLPDKNSASGHPHCFFCHLELGSDREVPSRFANHVNVEFSMPTTSASKAAVRSISVEDKPDVRKWVNYSAHYSYKVEIEQKKSLKPDFEGEDLENPKECGVQ
notes: stonin 2, endogenous in rat brain synaptosomes; source: endogenous, rat brain synaptosome lysate
B3: short-variant intersectin (natural protein, UniProt Q9WVE9-1 1-1217, looked up)
chain: MAQFPTPFGGSLDIWAITVEERAKHDQQFQSLKPISGFITGDQARNFFFQSGLPQPVLAQIWALADMNKDGRMDQVEFSIAMKLIKLKLQGYQLPPALPPVMKQQPAAISSAPAFGIGGMAGMPPLTAVAPVPMGSIPVVGMSPPLVSSVPQAAVPPLANGAPPVIQPLPAFAHPAATLPKSSSFSRSGPGSQLNTKLQKAQSFDVASAPAAAEWAVPQSSRLKYRQLFNSHDKTMSGHLTGPQARTILMQSSLPQAQLASIWNLSDIDQDGKLTAEEFILAMHLIDVAMSGQPLPPVLPPEYIPPSFRRVRSGSGMSVISSSSADQRLPEEPSSEDEQQVEKKLPVTFEDKKRENFERGNLELEKRRQALLEQQRKEQERLAQLERAEQERKERERQEQERKRQLELEKQLEKQRELERQREEERRKEIERREAAKRELERQRQLEWERNRRQELLTQRNKDQEGIVVLKARRKTLEFELEALNDKKHQLEGKLQDIRCRLATQRQEIESTNKSRELRIAEITHLQQQLQESQQMLGRLIPEKQILSDQLKQVQQNSLHRDSLLTLKRALEAKELARQQLREQLDEVEKETRSKLQEIDVFNNQLKELREIHSKQQLQKQRSIEAERLKQKEQERKSLELEKQKEEGQRRVQERDKQWQEHVQQEEQQRPRKPHEEDKLKREDSVKKKEAEERAKPEVQDKQSRLFHPHQEPAKPAQAPWPTTEKGPLTISAQESAKVVYYRALYPFESRSHDEITIQPGDIVMVKGEWVDESQTGEPGWLGGELKGKTGWFPANYAEKIPENEIPTPAKPVTDLTSAPAPKLALRETPAPLPVTSSEPSTTPNNWADFSSTWPSSTNEKPETDNWDTWAAQPSLTVPSAGQLRQRSAFTPATATGSSPSPVLGQGEKVEGLQAQALYPWRAKKDNHLNFNKSDVITVLEQQDMWWFGEVQGQKGWFPKSYVKLISGPVRKSTSIDTGPTEAPSSLKRVASPAAKPAIPGEEFVAMYTYESSEHGDLTFQQGDVIVVTKKDGDWWTGTVGETSGVFPSNYVRLKDSEGSGTAGKTGSLGKKPEIAQVIASYTATGPEQLTLAPGQLILIRKKNPGGWWEGELQARGKKRQIGWFPANYVKLLSPGTSKITPTELPKTAVQPAVCQVIGMYDYTAQNDDELAFSKGQIINVLSKEDPDWWKGEVSGQVGLFPSNYVKLTTDMDPSQQ
notes: intersectin (intersectin 1 by the antibody's name Intersectin/ESE-1), short variant, told from the long variant by the size of its band; endogenous in rat brain synaptosomes; they are told apart only as bands on the blot; not checked; also called S-intersectin; S-Int; source: endogenous, rat brain synaptosome lysate

Columns and labels:
Experiment in all cases: co-IP; fractional recovery: immunoprecipitate from rat brain synaptosome lysate on beads split in three aliquots, 15 min on ice in RIPA buffer with 150, 650 or 1150 mM total salt; what stayed on the beads found by Western blot and densitometry; FR = recovery at 1150 mM / recovery at 150 mM, normalised to the FR of the IP-protein
[1] = target: stonin2 (rat (endogenous in rat brain synaptosomes)) (UniProt D4AB66)
stonin2 = target: B2; conditions: partners not purified
heavy chain clathrin = target: T2, heavy chain clathrin (rat (endogenous in rat brain …, UniProt P11442 1-1675)); conditions: partners not purified
T2 construct: clathrin heavy chain, endogenous in rat brain synaptosomes; also called H-clathrin; H-Cl; source: endogenous, rat brain synaptosome lysate

AP180 = target: T1, AP180; conditions: partners not purified

T2 sequence (P11442 whole entry): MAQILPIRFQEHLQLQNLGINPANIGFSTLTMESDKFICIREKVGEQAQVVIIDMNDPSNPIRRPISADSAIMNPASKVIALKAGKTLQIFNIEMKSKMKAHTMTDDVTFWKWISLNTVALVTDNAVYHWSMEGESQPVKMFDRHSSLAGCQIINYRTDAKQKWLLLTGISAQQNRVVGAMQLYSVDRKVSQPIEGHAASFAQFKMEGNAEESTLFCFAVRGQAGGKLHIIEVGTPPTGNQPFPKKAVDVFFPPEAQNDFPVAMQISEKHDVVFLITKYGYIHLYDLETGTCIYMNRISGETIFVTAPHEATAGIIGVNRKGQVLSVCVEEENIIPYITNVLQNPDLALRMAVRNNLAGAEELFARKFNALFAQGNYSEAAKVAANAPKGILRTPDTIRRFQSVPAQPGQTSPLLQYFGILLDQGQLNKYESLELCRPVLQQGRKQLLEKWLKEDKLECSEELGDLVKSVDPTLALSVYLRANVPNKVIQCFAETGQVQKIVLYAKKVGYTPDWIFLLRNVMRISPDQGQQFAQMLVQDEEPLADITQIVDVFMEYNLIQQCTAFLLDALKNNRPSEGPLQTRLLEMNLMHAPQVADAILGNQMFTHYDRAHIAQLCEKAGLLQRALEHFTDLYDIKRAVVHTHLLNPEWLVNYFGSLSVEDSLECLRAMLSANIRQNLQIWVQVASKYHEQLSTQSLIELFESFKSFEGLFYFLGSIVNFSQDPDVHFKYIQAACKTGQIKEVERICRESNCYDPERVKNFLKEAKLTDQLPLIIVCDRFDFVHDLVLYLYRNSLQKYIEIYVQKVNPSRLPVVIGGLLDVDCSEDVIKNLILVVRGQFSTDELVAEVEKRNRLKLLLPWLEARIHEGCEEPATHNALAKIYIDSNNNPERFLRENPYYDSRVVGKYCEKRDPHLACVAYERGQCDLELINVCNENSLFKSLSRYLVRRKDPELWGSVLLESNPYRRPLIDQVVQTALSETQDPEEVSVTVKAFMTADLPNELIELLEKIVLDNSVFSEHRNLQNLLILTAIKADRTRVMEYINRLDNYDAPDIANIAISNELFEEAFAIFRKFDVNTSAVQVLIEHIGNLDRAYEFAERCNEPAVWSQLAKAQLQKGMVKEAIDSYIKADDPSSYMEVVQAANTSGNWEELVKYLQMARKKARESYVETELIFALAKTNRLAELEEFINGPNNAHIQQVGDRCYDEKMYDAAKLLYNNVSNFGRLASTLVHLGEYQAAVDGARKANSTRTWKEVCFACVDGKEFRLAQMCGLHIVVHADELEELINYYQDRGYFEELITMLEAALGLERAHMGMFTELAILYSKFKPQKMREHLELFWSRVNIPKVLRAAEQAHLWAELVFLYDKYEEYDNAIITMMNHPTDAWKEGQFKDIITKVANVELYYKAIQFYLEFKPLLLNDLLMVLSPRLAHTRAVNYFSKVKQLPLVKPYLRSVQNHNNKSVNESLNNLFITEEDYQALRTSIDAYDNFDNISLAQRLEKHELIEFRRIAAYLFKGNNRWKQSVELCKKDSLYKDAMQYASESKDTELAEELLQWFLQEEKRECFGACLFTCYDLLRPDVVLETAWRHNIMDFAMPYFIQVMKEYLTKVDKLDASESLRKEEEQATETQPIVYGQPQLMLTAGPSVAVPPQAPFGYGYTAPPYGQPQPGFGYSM

Row | fractional recovery (FR; recovery at 1150 mM salt / recovery at 150 mM salt) [1] | fractional recovery (FR; recovery at 1150 mM salt / recovery at 150 mM salt) (stonin2) | Molecule | other results
1 | 1 | – | long-variant intersectin (natural protein) | –
2 | 0.84 | – | light chain clathrin (from UniProt P08081 1-248) (natural protein) | –
3 | – | 0.98 | B1 | –
4 | – | – | B2 | fractional recovery (FR; recovery at 1150 mM salt / recovery at 150 mM salt) (heavy chain clathrin): 0.78; fractional recovery (FR; recovery at 1150 mM salt / recovery at 150 mM salt) (AP180): 1 ± 0.17
5 | – | 0.83 | B3 | –

From publication PMC1762330, “‘Fractional Recovery’ Analysis of a Presynaptic Synaptotagmin 1-Anchored Endocytic Protein Complex” (PLoS ONE, 2006)
